The text below walks through data of article doi:10.1101/2023.09.11.557127.

The target of this experiment is human wild-type 5-HT1AR with C-terminal ARMS2-PK2 (5-HT1AR-ARMS2-PK2) (human) (UniProt P08908). In words: split reporter.
Chain of UniProt P08908 (P08908 whole entry): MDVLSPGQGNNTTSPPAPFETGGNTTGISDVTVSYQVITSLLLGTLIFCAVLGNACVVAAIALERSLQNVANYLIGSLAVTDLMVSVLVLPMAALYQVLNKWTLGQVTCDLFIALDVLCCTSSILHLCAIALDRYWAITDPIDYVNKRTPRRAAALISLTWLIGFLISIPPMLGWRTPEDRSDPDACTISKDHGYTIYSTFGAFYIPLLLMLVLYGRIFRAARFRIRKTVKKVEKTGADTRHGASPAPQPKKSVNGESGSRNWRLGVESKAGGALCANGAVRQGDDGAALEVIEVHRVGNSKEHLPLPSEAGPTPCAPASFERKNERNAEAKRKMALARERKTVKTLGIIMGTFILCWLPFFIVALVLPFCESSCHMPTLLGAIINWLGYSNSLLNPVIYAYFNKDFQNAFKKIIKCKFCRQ

“β-arrestin-2-EA (from UniProt P32121 1-409) (natural protein)” gave an Emax of recruitment with ST171, elevated GRK2 (% of serotonin) of 15%; an Emax of recruitment with ST171, native GRK2 (% of serotonin) of less than 5%; an Emax of recruitment with befiradol, elevated GRK2 (% of serotonin) of 96%; an Emax of recruitment with befiradol, native GRK2 (% of serotonin) of 67%.
